The text below walks through data of US20190382484A1 (Chugai, published 2019).

Where a chain is given by its changes, count along the chain named.

In data set [1] the target is T1, antibody-half molecule A1 with PF1H / PF1L-k0 (PF1H-DA303v2/PF1L-k0). The data set is described as follows: SPR (Biacore T200), about 50 RU of half molecule A captured via biotinylated antigen peptide, half molecule B as analyte at 2.5 mg/mL, 25 C (Example 10). On the procedure:
(§1) The interaction between the obtained antibody-half molecules was analyzed using Biacore (registered trademark) T200. Biotin CAPture Kit, Series S (GE Healthcare) was used for the measurement, and HBS-EP+10X (GE Healthcare) diluted 1/10th was used as a running buffer. The measurement temperature was 25° C. For the sensor chip, Series S Sensor Chip CAP (GE Healthcare) onto which previously-biotinylated antigen peptides were allowed to interact and thereby immobilized was used. These chips were allowed to capture approximately 50 RU of the antibody-half molecule A of interest and then interact with the antibody-half molecule B of interest diluted with the running buffer at 2.5 mg/mL for 180 seconds at a flow rate of 30 μL/min, and measurement was carried out. The molar binding ratio was calculated based on the following Formula 2. The antibody-half molecule A captured on the chip was washed as described in the instructions attached to the kit, and the chip was regenerated and reused.
(§2) At this time, for the antibody-half molecule to be captured, PF1H (SEQ ID NO: 22), which is the H chain variable region portion of the anti-human IL6 receptor antibody described in WO 2009/041621, was used as the H chain variable region portion, PF1L (SEQ ID NO: 23), which is the L chain variable region portion of the anti-human IL6 receptor antibody described in WO 2009/041621, was used as the L chain variable region portion, and k0 was used as the L chain constant region portion. In addition, for the antibody-half molecules used as analytes, IC17H (SEQ ID NO: 24), which is the anti-KLH antibody described in WO 2015/174439, was used as the H chain variable region, IC17L (SEQ ID NO: 25), which is the anti-KLH antibody described in WO 2015/174439, was used as the L chain variable region, and k0 was used as L chain constant region.
In general terms: SPR reads the build-up and loss of mass on a sensor chip optically.

Data set [2] has as its target T1, antibody-half molecule A1 with PF1H / …. Description: SPR (Biacore T200), about 50 RU of half molecule A captured via biotinylated antigen peptide, half molecule B as analyte at 2.5 mg/mL, 25 C. As to the method:
as §1
as §2, with “the antibody-half molecules to be” for “the antibody-half molecule to be”, “used as the L chain” for “used as L chain”

Data set [3] deals with antibody-half molecule A3 with PF1H / PF1L-k0 (PF1H-DA405v2/PF1L-k0). The data set is described as above. On the procedure:
as §1
as §2, with “the antibody-half molecules to be” for “the antibody-half molecule to be”, “used as the L chain” for “used as L chain”

Data set [4] deals with antibody-half molecule A7 with PF1H / PF1L-k0 (PF1H-DA303v2.n.HATF.B/PF1L-k0). The data set is described as follows: SPR (Biacore T200), about 50 RU of half molecule A captured via biotinylated antigen peptide, half molecule B as analyte at 2.5 mg/mL, 25 C (Example 10). On the procedure: as §1, §2
Data set [5] deals with antibody-half molecule A5 with PF1H / PF1L-k0 (PF1H-DA430v2/PF1L-k0). The data set is described as follows: SPR (Biacore T200), about 50 RU of half molecule A captured via biotinylated antigen peptide, half molecule B as analyte at 2.5 mg/mL, 25 C. As to the method: as §1
as §2, with “the antibody-half molecules to be” for “the antibody-half molecule to be”, “used as the L chain” for “used as L chain”

Data set [6] concerns the target antibody-half molecule A6 with PF1H / PF1L-k0 (PF1H-DA303v2.n.n/PF1L-k0). The data set is described as follows: SPR (Biacore T200), about 50 RU of half molecule A captured via biotinylated antigen peptide, half molecule B as analyte at 2.5 mg/mL, 25 C (Example 10). On the procedure:
as §1, §2

Data set [7] has as its target antibody-half molecule A2 with PF1H / PF1L-k0 (PF1H-DA402v2/PF1L-k0). The data set is described as follows: SPR (Biacore T200), about 50 RU of half molecule A captured via biotinylated antigen peptide, half molecule B as analyte at 2.5 mg/mL, 25 C. On the procedure: as §1
as §2, with “the antibody-half molecules to be” for “the antibody-half molecule to be”, “used as the L chain” for “used as L chain”

The target in data set [8] is antibody-half molecule A4 with PF1H / PF1L-k0 (PF1H-DA424v2/PF1L-k0). The description is as above. On the procedure:
as §1
as §2, with “the antibody-half molecules to be” for “the antibody-half molecule to be”, “used as the L chain” for “used as L chain”

Data set [9] concerns the molecule itself. Description: size exclusion chromatography (G3000SWXL), absorbance 280 nm; self-association of the half molecule [panel b]. For orientation: In gel filtration, larger molecules generally elute earlier.
Description: The protein concentration of the antibody-half molecules was 0.25 mg/mL, and 80 μL was injected.
Evaluation of the molecular weight of the prepared antibody-half molecules A and B was carried out by size exclusion chromatography.
Data set [10] addresses T2, FcγRIIIa extracellular domain (UniProt P08637 17-208, limits assumed).
T2 construct: extracellular domain; Purified over HisTrap, so a His tag is implied
Description: SPR (Biacore T200), mixed half molecules captured via biotinylated antigen peptide on CAP chip, FcγR as analyte, 25 C. As to the method: Interaction analysis of antibody-half molecules of interest and FcγR was performed using Biacore (registered trademark) T200. Biotin CAPture Kit, Series S (GE Healthcare) was used for the measurement, and HBS-EP+10X (GE Healthcare) diluted 1/10th was used as a running buffer. The measurement temperature was 25° C. For the sensor chip, Series S Sensor Chip CAP (GE Healthcare) onto which previously-biotinylated antigen peptides were allowed to interact and thereby immobilized was used. These chips were allowed to capture the antibody-half molecules of interest and then interact with FcγR diluted with the running buffer. The antigens and antibody-half molecules captured on the chip were washed as described in the instructions attached to the kit, and the chips were regenerated and reused.

T2 sequence (P08637 17-208 limits assumed): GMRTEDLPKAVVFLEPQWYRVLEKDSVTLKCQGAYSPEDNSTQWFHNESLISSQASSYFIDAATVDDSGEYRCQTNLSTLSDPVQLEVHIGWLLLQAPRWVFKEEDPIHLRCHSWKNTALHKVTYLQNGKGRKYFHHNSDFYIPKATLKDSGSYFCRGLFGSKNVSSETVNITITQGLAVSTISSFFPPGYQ

B1: antibody-half molecule B1 with IC17H / IC17L-k0 (IC17H-DB220v2/IC17L-k0) (antibody, human IgG1, kappa)
heavy: QVQLQQSGPQLVRPGASVKISCKASGYSFTSYWMHWVNQRPGQGLEWIGMIDPSYSETRLNQKFKDKATLTVDKSSSTAYMQLSSPTSEDSAVYYCALYGNYFDYWGQGTTLTVSSASTKGPSVFPLAPSSKSTSGGTAALGCLVKDYFPEPVTVSWNSGALTSGVHTFPAVLQSSGLYSLSSVVTVPSSSLGTQTYICNVNHKPSNTKVDKKVEPKSCDKTHTSPPSPAPELLGGPSVFLFPPKPKDTLMISRTPEVTCVVVDVSHEEPEVKFNWYVDGVEVHNAKTKPREEQYNSTYRVVSVLTVLHQDWLNGKEYKCKVSNDALPMPIEETISKAKGQPREPQVYTLPPSRDELTKNQVSLTCLVKGFYPSDIAVEWESNGQPENNYKTTPPYLDSDGSFFLYSDLTVDKSRWQQGNVFSCSVMHEALHNHYTQESLSLSP
light: DIQMTQSSSSFSVSLGDRVTITCKASEDIYNRLAWYQQKPGNAPRLLISGATSLETGVPSRFSGSGSGKDYTLSITSLQTEDVATYYCQQYWSTPYTFGGGTKLEVKRTVAAPSVFIFPPSDEQLKSGTASVVCLLNNFYPREAKVQWKVDNALQSGNSQESVTEQDSKDSTYSLSSTLTLSKADYEKHKVYACEVTHQGLSSPVTKSFNRGEC
As to B1, the molar binding ratio in [1] is 0.54; in [2] it was 0.38.

B2: antibody-half molecule B3 with IC17H / IC17L-k0 (IC17H-DB405v2/IC17L-k0) (antibody, human IgG1, kappa)
heavy: B1 heavy with D408T
light: B1 light
Take B2: in data set [3], the molar binding ratio stood at 0.54.

B3: antibody-half molecule B7 with IC17H / IC17L-k0 (IC17H-DB220v2.n.HATF.A/IC17L-k0) (antibody, human IgG1, kappa)
heavy: B1 heavy with S363H, F404A, E438K
light: B1 light
For the molecule B3, the molar binding ratio in data set [4] was 0.32.

B4: antibody-half molecule B5 with IC17H / IC17L-k0 (IC17H-DB430v2/IC17L-k0) (antibody, human IgG1, kappa)
heavy: B1 heavy with E356L
light: B1 light
With B4, the molar binding ratio in [5] came out at 0.27.

B5: antibody-half molecule B6 with IC17H / IC17L-k0 (IC17H-DB220v2.n.n/IC17L-k0) (antibody, human IgG1, kappa)
heavy: B1 heavy with E438K
light: B1 light
As to B5, in [6], the molar binding ratio stood at 0.42.

B6: antibody-half molecule B2 with IC17H / IC17L-k0 (IC17H-DB402v2/IC17L-k0) (antibody, human IgG1, kappa)
heavy: B1 heavy with D408H
light: B1 light
Take B6: in [7], the molar binding ratio amounted to 0.63.

B7: antibody-half molecule B4 with IC17H / IC17L-k0 (IC17H-DB424v2/IC17L-k0) (antibody, human IgG1, kappa)
heavy: B1 heavy with E356N
light: B1 light
On to B7, for which, in data set [8], the molar binding ratio came out at 0.25.

B8: EGLVH-wtIgG4C4/EGLVL-k0 (antibody, V domains shown)
VH: QDQLVQSGAEVKKPGASVKVSCKASGFNIKDTYIQWVRQAPGQGLEWMGRIDPLRKQTKYREKFEGRVTITADTSTNTAYMELSSLRSEDTAVYYCVRSGREFDYWGQGTLVTVSS
VL: DIQMTQSPSSLSASVGDRVTITCRASQDIHKYIAWYQQKPGQAPRLLIQYTSTLQPGVPSRFSGSGSGTDYTFTISSLQPEDIATYYCLQYEQLRTFGGGTKVEIKR
notes: also called control of the half molecule state of antibody
On to B8, for which, in [9], the binding result is listed as “no binding (tested: 0.25 mg/mL injected)”.

B9: MRAH-DA303v2/MRAL-k0 + MRAH-DB220v2/MRAL-k0 (antibody, human IgG1, kappa)
heavy 1: QVQLQESGPGLVRPSQTLSLTCTVSGYSITSDHAWSWVRQPPGRGLEWIGYISYSGITTYNPSLKSRVTMLRDTSKNQFSLRLSSVTAADTAVYYCARSLARTTAMDYWGQGSLVTVSSASTKGPSVFPLAPSSKSTSGGTAALGCLVKDYFPEPVTVSWNSGALTSGVHTFPAVLQSSGLYSLSSVVTVPSSSLGTQTYICNVNHKPSNTKVDKKVEPKSCDKTHTSPPSPAPEYQWGPMVFLFPPKPKDTLMISRTPEVTCVVVDVSDEEPEVKFNWYVDGVEVHNAKTKPREEQYNATYRVVSVLTVLHQDWLNGKEYKCKVSNKALPAPIEKTISKAKGQPREPQVYTLPPSRKELTKNQVSLTCLVKGFYPSDIAVEWESNGQPENNYKTTPPYLDSDGSFFLYSDLTVDKSRWQQGNVFSCSVMHEALHNHYTQKSLSLSP
heavy 2: QVQLQESGPGLVRPSQTLSLTCTVSGYSITSDHAWSWVRQPPGRGLEWIGYISYSGITTYNPSLKSRVTMLRDTSKNQFSLRLSSVTAADTAVYYCARSLARTTAMDYWGQGSLVTVSSASTKGPSVFPLAPSSKSTSGGTAALGCLVKDYFPEPVTVSWNSGALTSGVHTFPAVLQSSGLYSLSSVVTVPSSSLGTQTYICNVNHKPSNTKVDKKVEPKSCDKTHTSPPSPAPELLGGPSVFLFPPKPKDTLMISRTPEVTCVVVDVSHEEPEVKFNWYVDGVEVHNAKTKPREEQYNSTYRVVSVLTVLHQDWLNGKEYKCKVSNDALPMPIEETISKAKGQPREPQVYTLPPSRDELTKNQVSLTCLVKGFYPSDIAVEWESNGQPENNYKTTPPYLDSDGSFFLYSDLTVDKSRWQQGNVFSCSVMHEALHNHYTQESLSLSP
light: not shown
notes: Mixture of the two antibody-half molecules, which form a non-covalent heterodimer when captured on antigen; also called A1 + B1
The Kd is the constant that tells how readily two partners part at equilibrium. Low readings indicate higher affinity, high ones lower affinity. As to B9, the affinity in data set [10], expressed as Kd, was 6.1 nM.

B10: MRAH-DA402v2/MRAL-k0 + MRAH-DB402v2/MRAL-k0 (antibody, human IgG1, kappa)
heavy 1: B9 heavy 1 with D411H
heavy 2: B9 heavy 2 with D411H
light: not shown
notes: Mixture of the two antibody-half molecules, which form a non-covalent heterodimer when captured on antigen; also called A2 + B2
In [10], B10 displayed a Kd of 0.95 nM.

B11: MRAH-DA405v2/MRAL-k0 + MRAH-DB405v2/MRAL-k0 (antibody, human IgG1, kappa)
heavy 1: B9 heavy 1 with D411T
heavy 2: B9 heavy 2 with D411T
light: not shown
notes: Mixture of the two antibody-half molecules, which form a non-covalent heterodimer when captured on antigen; also called A3 + B3
Molecule B11 came in with a Kd in [10] of 1.2 nM.

B12: MRAH-DA430v2/MRAL-k0 + MRAH-DB430v2/MRAL-k0 (antibody, human IgG1, kappa)
heavy 1: B9 heavy 1 with E359L
heavy 2: B9 heavy 2 with E359L
light: not shown
notes: Mixture of the two antibody-half molecules, which form a non-covalent heterodimer when captured on antigen; also called A5 + B5
B12 returned a Kd in [10] of 53 nM.

B13: MRAH-DA424v2/MRAL-k0 + MRAH-DB424v2/MRAL-k0 (antibody, human IgG1, kappa)
heavy 1: B9 heavy 1 with E359N
heavy 2: B9 heavy 2 with E359N
light: not shown
notes: Mixture of the two antibody-half molecules, which form a non-covalent heterodimer when captured on antigen; also called A4 + B4
For the molecule B13, the Kd in data set [10] amounted to 10 nM.
